This is an account of results in US20200399358A1 (Sanofi, published 2020).

Assay [1] concerns the target T1, human TGF-β1 (human, UniProt P01137 279-390). The assay can be described thus: cell-based or functional assay.
The target of assay [2] is T2, murine TGF-β2 (mouse, UniProt P27090 303-414).
T2 sequence (looked up): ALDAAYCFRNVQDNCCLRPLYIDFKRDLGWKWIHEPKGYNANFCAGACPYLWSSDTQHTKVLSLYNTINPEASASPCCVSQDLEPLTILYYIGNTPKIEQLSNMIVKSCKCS
Briefly: cell-based or functional assay.

Assay [3] has as its target T3, murine TGF-β1 (mouse, UniProt P04202 279-390).
T3 construct: mature; Bought from R&D Systems; also called Murine and Rat TGF-β1; murine/rat TGF-β1
The assay can be described thus: SPR (Biacore T200), Ab1 injected over immobilized TGF-β homodimer, 1:1 model. As to the method: (§1) The affinity of Ab1 for all human and murine TGF-β isoforms was determined by surface plasmon resonance on a Biacore T200 Biosensor instrument (GE Healthcare) using a dextran-coated carboxy-methylated (CM5) series S chip. Ab1 at a series of concentrations (1.11, 3.33, 10, and 30 nM) was injected onto immobilized recombinant TGF-β to measure the binding interaction in real time. The TGF-β homodimers were immobilized at a low density to reduce avidity effects. Injections were performed in triplicate and the binding assay was repeated three times. The data from the kinetic experiments were processed using the Biacore T200 Biaevaluation v2.0 software. Resulting sensorgrams were zeroed, aligned, double referenced, and cropped for curve fitting analysis using a 1:1 binding model to determine association rate constant (kₐ), dissociation rate constant (kd), and equilibrium dissociation constant (KD).
On the technique in general: SPR reads the build-up and loss of mass on a sensor chip optically.

In assay [4] the target is T4, human TGF-β3 (human, UniProt P10600 301-412).
T4 construct: mature; Produced internally; Human protein was measured; also called Human and Murine TGF-β3
T4 sequence (looked up): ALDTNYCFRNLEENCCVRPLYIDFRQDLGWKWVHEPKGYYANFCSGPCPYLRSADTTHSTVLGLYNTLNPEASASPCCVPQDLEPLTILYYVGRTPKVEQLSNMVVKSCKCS
The assay is described as above. As to the method: as §1

The target of assay [5] is T2, murine TGF-β2. The description is as above. As to the method:
as §1

Assay [6] has as its target T5, human TGF-β2 (human, UniProt P61812 303-414).
T5 construct: mature; Produced internally
T5 sequence (looked up): T2 sequence (looked up) with T59S, K60R, N94K
The assay is described as above. As to the method: as §1

The target of assay [7] is T1, human TGF-β1. Described as above. As to the method: as §1
Assay [8] concerns the target T3, murine TGF-β1. The assay can be described thus: cell-based or functional assay.
The target of assay [9] is T5, human TGF-β2. Briefly: cell-based or functional assay.
Assay [10] deals with T4, human TGF-β3. Briefly: cell-based or functional assay.
Assay [11] has as its target T1, human TGF-β1. The assay can be described thus: cell-based or functional assay. This is another data set of the same source.

Changes are numbered by the printed parent chain.

T3 sequence (P04202 279-390 limits assumed): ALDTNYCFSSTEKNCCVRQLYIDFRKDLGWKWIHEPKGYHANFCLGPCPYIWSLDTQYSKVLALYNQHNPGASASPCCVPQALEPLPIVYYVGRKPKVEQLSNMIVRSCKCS
T1 sequence (P01137 279-390 limits assumed): as the sequence (P04202 279-390 limits assumed) above, with S75A counted along it

B1: Ab1 (antibody, human IgG4 S228P, kappa)
heavy: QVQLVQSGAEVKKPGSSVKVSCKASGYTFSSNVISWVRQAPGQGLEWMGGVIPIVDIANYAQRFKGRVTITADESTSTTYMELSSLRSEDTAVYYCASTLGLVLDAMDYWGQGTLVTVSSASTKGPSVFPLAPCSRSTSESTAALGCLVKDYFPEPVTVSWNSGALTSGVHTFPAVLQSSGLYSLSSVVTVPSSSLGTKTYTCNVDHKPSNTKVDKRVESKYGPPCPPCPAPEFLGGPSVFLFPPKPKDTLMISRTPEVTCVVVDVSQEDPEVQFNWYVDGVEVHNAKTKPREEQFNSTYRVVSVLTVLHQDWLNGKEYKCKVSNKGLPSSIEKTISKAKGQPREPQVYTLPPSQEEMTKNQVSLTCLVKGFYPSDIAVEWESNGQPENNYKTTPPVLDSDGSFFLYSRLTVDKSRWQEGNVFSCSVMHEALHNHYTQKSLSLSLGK
light: ETVLTQSPGTLSLSPGERATLSCRASQSLGSSYLAWYQQKPGQAPRLLIYGASSRAPGIPDRFSGSGSGTDFTLTISRLEPEDFAVYYCQQYADSPITFGQGTRLEIKRTVAAPSVFIFPPSDEQLKSGTASVVCLLNNFYPREAKVQWKVDNALQSGNSQESVTEQDSKDSTYSLSSTLTLSKADYEKHKVYACEVTHQGLSSPVTKSFNRGEC
notes: Human IgG4 with proline at position 228 (EU numbering); also called anti-TGF-β antibody Ab1
On to B1, for which the “fold change of luciferase activity against isotype control Ab (639440 RLU)” value with human TGF-β1 [1] amounted to 1.45 fold. Besides, the “fold change of luciferase activity against no Ab control (638866 RLU)” value in the assay with human TGF-β1 [1] amounted to 1.45 fold. Also, the “EC50 (read off the curve); neutralisation, Mv 1 Lu proliferation with 1 ng/ml TGF-β” value (“EC50 (read off the curve)” below) in the assay with murine TGF-β2 [2] was approximately 9 µg/mL; with murine TGF-β1 [8] it was approximately 0.6 µg/mL; with human TGF-β2 [9], approximately 4 µg/mL; with human TGF-β3 [10], approximately 2 µg/mL. Also, the Kd amounted to 2.8 nM in the assay with murine TGF-β1 [3]; 1.65 nM in the assay with human TGF-β3 [4]; 1.88 nM with murine TGF-β2 [5]; 3 nM in the assay with human TGF-β2 [6]; 1.48 nM with human TGF-β1 [7]. The koff with murine TGF-β1 [3] turned out to be 0.000835 s⁻¹; with human TGF-β3 [4], 0.000372 s⁻¹; in the assay with murine TGF-β2 [5], 0.000645 s⁻¹; with human TGF-β2 [6] it was 0.000823 s⁻¹; with human TGF-β1 [7], 0.000343 s⁻¹. Also, the on-rate (kon) came out at 298000 M⁻¹ s⁻¹ in the assay with murine TGF-β1 [3]; 223000 M⁻¹ s⁻¹ with human TGF-β3 [4]; 348000 M⁻¹ s⁻¹ in the assay with murine TGF-β2 [5]; 286000 M⁻¹ s⁻¹ in the assay with human TGF-β2 [6]; 311000 M⁻¹ s⁻¹ with human TGF-β1 [7].

B2: fresolimumab (antibody, human IgG4, kappa)
heavy: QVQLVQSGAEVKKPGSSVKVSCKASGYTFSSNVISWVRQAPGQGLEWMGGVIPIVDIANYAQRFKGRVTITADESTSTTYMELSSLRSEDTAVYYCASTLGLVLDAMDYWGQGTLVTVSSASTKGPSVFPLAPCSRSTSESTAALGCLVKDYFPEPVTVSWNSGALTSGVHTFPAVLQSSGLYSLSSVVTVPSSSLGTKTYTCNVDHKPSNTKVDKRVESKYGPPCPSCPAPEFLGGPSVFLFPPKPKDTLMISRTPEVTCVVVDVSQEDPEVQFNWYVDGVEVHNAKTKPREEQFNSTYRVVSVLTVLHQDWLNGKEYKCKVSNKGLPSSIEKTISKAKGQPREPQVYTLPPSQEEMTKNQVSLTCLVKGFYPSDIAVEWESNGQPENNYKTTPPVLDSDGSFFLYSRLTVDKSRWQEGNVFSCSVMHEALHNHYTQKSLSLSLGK
light: B1 light
As to B2, the “EC50 (read off the curve)” value in the assay with murine TGF-β2 [2] is approximately 9 µg/mL; with murine TGF-β1 [8], approximately 0.6 µg/mL; with human TGF-β2 [9], approximately 5 µg/mL; in the assay with human TGF-β3 [10], approximately 2 µg/mL.

B3: 1D11 (antibody, mouse IgG1, kappa, V domains shown)
VH: HVQLQQSGPELVRPGASVKLSCKASGYIFITYWMNWVKQRPGQGLEWIGQIFPASGSTNYNEMFEGKATLTVDTSSSTAYMQLSSLTSEDSAVYYCARGDGNYALDAMDYWGQGTSVTVSS
VL: NIVLTQSPASLAVSLGQRATISCRASESVDSYGNSFMHWYQQKSGQPPKLLIYLASNLESGVPARFSGSGSRTDFTLTIDPVEADDAATYYCQQNNEDPLTFGAGTKLELKR
With B3, the “EC50 (read off the curve)” value with human TGF-β1 [11] is approximately 7 µg/mL; in the assay with murine TGF-β1 [8], approximately 4 µg/mL; with human TGF-β2 [9], approximately 6 µg/mL; with human TGF-β3 [10], approximately 0.4 µg/mL.

A word on the Kd: it is a measure of binding affinity in units of concentration. Low readings indicate a tighter complex, high ones a looser complex. The koff is the first-order rate constant of dissociation. Usually kon stands for a measure of how fast the partners come together. A high value points to faster complex formation.
